Bridges are numbered along the chain shown (N, C = ends). Where no end group is shown, it is not given here.
Tests used:
HepG2 cells [1] = assay: Transient SEAP gene expression over 10 days; type: cell-based; settings: with chloroquine
Procedure: HepG2 cells (3×10^5) were plated on 6×35 mm wells and grown for 48 h to 40% confluence in MEM supplemented with 10% fetal calf serum (FCS). Crosslinked DNA condensates (10 μg of DNA in 200 μL) were transfected in triplicate by drop wise addition to cells in 2% FCS either with or without 80 μM chloroquine followed by 5 h incubation, after which the media was replaced with 2 mL of MEM containing 10% fetal calf serum and allowed to incubate for an additional 19 h. Wells were sampled for 10 days at 24 h intervals by removing and freezing (−20° C.) the media and replacing it with 2 mL of fresh 10% FCS MEM.
The amount of SEAP in each well was determined using a chemiluminescent kit. Media (50 μL) was combined with 50 μl of dilution buffer followed by incubation at 65° C. for 30 min to denature endogenous alkaline phosphatase. […] After 30 min, the luminescence was measured with a 10 s integration on a Berthold Lumat™ LB 9501 luminometer. Light units were converted to μg/ml of SEAP using a standard curve constructed by adding known quantities of SEAP to cell homogenate. Background alkaline phosphatase production was determined from a 10 day null control that was subtracted from each data set.

[2] = QELS particle size and zeta potential of cross-linking peptide DNA condensates, Example 5; type: physicochemical
Procedure: The particle size of each peptide DNA condensate was determined by quasielastic light scattering (QELS) at a scatter angle of both 15° and 90° on a Brookhaven ZetaPlus™ particle sizer. Condensates were prepared at a DNA concentration of 50 μg/ml in 400 μl HBM at a stoichiometry of 0.4 nmol of peptide per μg of DNA corresponding to a charge ratio of approximately 2:1 for each. The mean diameter and population distribution were computed from the diffusion coefficient using a unimodal cummulant analysis supplied by the manufacturer.
The particle size and zeta peptide IV DNA condensates were determined by titrating 7.5 to 37.5 nmol of peptide with 75 μg of DNA in 1.5 ml of HBM to produce 50 μg/ml DNA condensates with charge ratio of 0.5-2.5. The zeta potential was averaged from 10 determines.

HepG2 cells [3] = assay: Luciferase reporter gene expression in HepG2 cells, Example 5; type: cell-based
Procedure: HepG2 cells (1.5×10^5) were plated on 6×35 mm wells and grown to 40-70% confluency in MEM supplemented with 10% FBS, penicillin and streptomycin (10,000 U/ml), sodium pyruvate (100 mM), and L-glutamine (200 mM). Transfections were performed in MEM (2 ml per 35 mm well) with 2% FBS and 80 μM chloroquine. Peptide DNA condensates (10 μg of DNA in 0.2 ml HBM) were added dropwise to triplicate wells. After a 5 h incubation at 37° C., the media was replaced with MEM supplemented with 10% FBS. After 24 h, cells were washed twice with ice-cold phosphate buffered saline (calcium and magnesium free) and then treated with 0.5 ml of ice-cold lysis buffer (25 mM Tris chloride pH 7.8, 1 mM EDTA, 8 mM magnesium chloride, 1% Triton X-100, 1 mM DTT) for 10 min. The cell lysate was scraped, transferred to 1.5 ml microcentrifuge tubes, and centrifuged for 7 min at 13,000 g at 4° C. to pellet debris.
Lysis buffer (300 μl), sodium-ATP (4 μl of a 180 mM solution, pH 7, 4° C.) and cell lysate (100 μl, 4° C.) were combined in a test tube, briefly mixed and immediately placed in the luminometer. Luciferase relative light units (RLU) were recorded on a Lumat™ LB 9501 (Berthold systems, Germany) with 10 sec integration after automatic injection of 100 μl of 0.5 mM D-luciferin (prepared fresh in lysis buffer without DTT). The RLU were converted in fmol using a standard curve generated by adding a known amount of luciferase (0.01 to 100 fmols with specific activity of 2.5 nU/fmol) to 35 mm wells containing 40-70% confluent HepG2 cells. The cells were processed as described above resulting in a standard curve with an average slope of 7.8×10^6 RLU per fmol of enzyme. Protein concentrations were measured by Bradford assay using bovine serum albumin as a standard (Bradford, 1976). The amount of luciferase recovered in each sample was normalized to milligrams of protein and reported as the mean and standard deviation obtained from triplicate transfections.
LipofectAce™ (Gibco BRL, 1:2.5 w/w dimethyl diotadecylammonium bromide and dioleoyl phosphatidylethanolamine) was used to mediate gene transfection according to the manufacturer's instructions. The ratio of DNA to LepofectAce™ was optimized for HepG2 cells. An optimal DNA/LipofectAce™ ratio was achieved by dissolving 10 μg of DNA in 100 μl serum free media (SFM) followed by adding 60 μl of LipofectAce™ prepared in 140 μl of SFM. The LipfectAce™ DNA complex was then diluted with 1.7 ml of SFM and used to transfect HepG2 cells for 5 h followed by replacing the transfecting media with media supplemented with 10% FBS. The cells were incubated for a total of 24 h, harvested and analyzed for luciferase as described above.

plasmid DNA = assay: Fluorescent dye (thiazole orange) displacement assay of peptide binding to DNA, Example 1; settings: corresponding to a charge ratio of 1.8:1
Procedure: Peptide DNA condensates were formed by adding 75 μg of DNA (pCMVL in 750 μl of 5 mM Hepes pH 7.4) to varying amounts of peptide (7.5 to 90 nmol in 750 μl of Hepes) while vortexing, followed by equilibration at RT for 1 h. Peptide binding to DNA was monitored by a fluorescent dye displacement assay (Wadhwa et al. 1997). A 1 μg aliquot of the peptide DNA condensate was diluted to 1 ml in Hepes containing 0.1 μM thiazole orange. The fluorescence of the intercalated dye was measured on an LS50B fluorimeter (Perkin Elmer, UK) in a microcuvette by exciting at 500 nm while monitoring emission at 530 nm.

[4] = QELS particle size and zeta potential of PEG-peptide DNA condensates and co-condensates, Example 1; type: physicochemical
Procedure: The particle size of peptide DNA condensates were analyzed at a DNA concentration of 50 μg/ml in Hepes by quasielastic light scattering (QELS). The particle surface change was determined by zeta potential analysis using a Brookhaven ZetaPlus™ (Brookhaven Instruments).
DNA co-condensates were prepared by add-mixing AlkCWK18 and PEG-VS-CWK18 in ratios ranging from 0 to 100 mol %, and condensing DNA at a charge ratio of 2.3:1 as described above. To establish the mol ratio of peptides bound to DNA, condensates were dialyzed in a fixed volume (0.5 ml) dialyzer for 75 h against water using a 100,000 MWCO membrane. Peptide DNA condensates in the retentate (0.5 ml) were dissociated by adding 50 μl of 5 M sodium chloride in 0.1% TFA. AlkCWK18 and PEG-VS-CWK18 were quantified by injecting 1 nmol of peptide (100 μl) onto analytical RP-HPLC eluted with 0.1% TFA and a gradient of acetonitrile (5 to 65% over 30 min) while detecting tryptophan by fluorescence (λex 280 nm, λem 350 nm). The peak integration areas were used to quantify AlkCWK18 and PEG-VS-CWK18 with reference to standard curves developed for each peptide.

[5] = Solubility of peptide DNA condensates: particle size as a function of DNA concentration; type: physicochemical; settings: at 2 mg/ml DNA
HepG2 cells [6] = assay: In vitro luciferase gene expression, Example 1; type: cell-based; settings: HepG2, 24 h post-transfection, 10 μg DNA, 80 μM chloroquine
Procedure: HepG2 cells were plated at 1.5×10^5 cells per 35 mm well and grown to 40-70% confluence in MEM supplemented with 10% fetal calf serum (FCS). Peptide DNA condensates (10 μg of DNA) were added dropwise to triplicate sets of cells in 2% FCS containing 80 μM chloroquine. After 5 h incubation at 37° C., the media was replaced with MEM supplemented with 10% FCS, and luciferase expression was determined at 24 h. Cells were washed twice with ice-cold phosphate buffered saline (calcium and magnesium free) and then treated with 0.5 ml of ice-cold lysis buffer (25 mM Tris hydrochloride pH 7.8, 1 mM EDTA, 8 mM magnesium chloride, 1% Triton X-100, 1 mM DTT) for 10 min. The cell lysate was scraped, transferred to 1.5 ml micro centrifuge tubes, and centrifuged for 7 min at 13,000 g at 4° C. to pellet debris.
Lysis buffer (300 μl), sodium-ATP (4 μl of a 180 mM solution, pH 7, 4° C.) and cell lysate (100 μl, 4° C.) were combined in a test tube, briefly mixed and immediately placed in the luminometer. Luciferase relative light units (RLU) were recorded on a Lumat™ LB 9501 (Berthold Systems, Germany) with 10 sec integration after automatic injection of 100 μl of 0.5 mM D-luciferin (prepared fresh in lysis buffer without DTT). […]

HepG2 cells [7] = assay: Cell binding of 125I-DNA condensates, Example 1; type: cell-based; settings: 5 h transfection, 10 μg 125I-DNA condensates
Procedure: Iodinated plasmid DNA was prepared with specific activity of 300 nCi per μg of DNA as described previously (Teribesi et al., 1998). Prior to forming DNA condensates, the specific activity of the ^125I DNA was adjusted to 4.5 nCi per μg of DNA by combining with unlabeled plasmid. DNA condensates were prepared using AlkCWK18, PEG-SS-CWK18 or PEG-VS-CWK18 as described above. Peptide ^125I-DNA condensates (10 μg) were used to transfer HepG2 cells for 5 h according to the procedure described above. The radioactive media was removed, cells were washed with phosphate buffered saline, harvested with lysis buffer, and the cell-associated radioactivity was quantified by gamma counting.

Row | Substance | more gene product relative to CWK18 DNA condensates (HepG2 cells [1]) | slope of the day 7-10 cumulative SEAP expression (HepG2 cells [1]; HMW polylysine panel (FIG. 29B)) | Particle Size Mean Diameter, Oxidized, 15° ([2]; HBM after 2 h incubation, 50 μg/ml DNA, 0.4 nmol peptide per μg DNA, scattering angle 15°) | Particle Size Mean Diameter, Oxidized, 90° ([2]; HBM after 2 h incubation, 50 μg/ml DNA, 0.4 nmol peptide per μg DNA, scattering angle 90°) | Particle Size Mean Diameter, Saline ([2]; HBM with added saline (0.15 M) after 15 min) | Particle Size Mean Diameter, Reduced ([2]; following addition of TCEP (1 mM)) | inferiority to polylysine1007 as a DNA carrier (gene expression) (HepG2 cells [3]) | peptide:DNA stoichiometry at the asymptote of the dye displacement titration curve (relative DNA binding affinity) (plasmid DNA) | zeta potential of DNA condensates ([4]; charge ratio 1.8:1) | mean diameter of DNA condensates ([4]; charge ratio of 1.8:1 or higher, 50 μg/ml DNA in Hepes) | mean diameter of DNA condensates [5] | reduction of spontaneous gene transfer (luciferase expression) relative to AlkCWK18 DNA condensates (HepG2 cells [6]) | cell associated 125I-DNA, percent of dose (HepG2 cells [7])
1 | Lys18-Trp-Cys-S-S-Cys-Trp-Lys18 (KKKKKKKKKKKKKKKKKKWCCWKKKKKKKKKKKKKKKKKK; disulfide 20-21; also: disulfide-linked dimer of two CWK18 chains, no peptide bond between positions 20 and 21) [DiCWK18] | approximately 10% | 32.7 ng/mL | 74 nm | 68 nm | 171 nm | 153 nm | 5 fold |  |  |  |  |  | 
2 | PEG-SS-CWK18: reducible PEG-peptide from PEG-orthopyridyl-disulfide (5 kDa) and the sulfhydryl of CWK18 (CWKKKKKKKKKKKKKKKKKK; not fully specified (residue 1)) |  |  |  |  |  |  |  | 0.3 nmol per μg of DNA | +10 mV | 90 nm | 88 nm | five-fold | 6.8%
